Paper PMC9064986 (2022)

B1: BMPRII extracellular domain (ECD), wild type [human] / BMP10 growth factor (GF)-domain from Pro:BMP10 made in HEK EBNA cells [human] (parent complex)
chain 1: SQNQERLCAFKDPYQQDLGIGESRISHENGTILCSKGSTCYGLWEKSKGDINLVKQGCWSHIGDPQECHYEECVVTTTPPSIQNGTYRFCCCSTDLCNVNFTENFPPPDTTPLSPPHSFNRDET
chain 2: NAKGNYCKRTPLYIDFKEIGWDSWIIAPPGYEAYECRGVCNYPLAEHLTPTKHAIIQALVHLKNSQKASKACCVPTKLEPISILYLDKGVVTYKFKYEGMAVSECGCR

Variants of: B1
Experiment: SPR (Biacore); BMP10 immobilised on a CM5 Biacore chip; parent: 0.161

koff [s⁻¹] | Variant
0.609 | chain 1 SQNQERLCAFKDPYQQDLGIGESRISHENGTILCSKGSTCYGLWEKSKGDINLVKQGCWSHIEDPQECHYEECVVTTTPPSIQNGTYRFCCCSTDLCNVNFTENFPPPDTTPLSPPHSFNRDET [chain 1 G63E]
0.158 | chain 1 SQNQERLCAFKDPYQQDLGIGESRISHENGTILCSKGSTCYGLWEKSKGDINLVKQGCWSHIGDPQECHYEKCVVTTTPPSIQNGTYRFCCCSTDLCNVNFTENFPPPDTTPLSPPHSFNRDET [chain 1 E72K]
0.433 | chain 1 SQNQERLCAFKDPYQQDLGIGESRISHENGTILCSKGSTCYGLWEKSKGDINLVKQGCWSHIWDPQECHYEECVVTTTPPSIQNGTYRFCCCSTDLCNVNFTENFPPPDTTPLSPPHSFNRDET [chain 1 G63W]
0.147 | chain 1 SQNQERLCAFKDPYQQDLGIGESRISHENGTILCSKGSTCYGLWEKSKGDINLVKQGCWSHIGDPHECHYEECVVTTTPPSIQNGTYRFCCCSTDLCNVNFTENFPPPDTTPLSPPHSFNRDET [chain 1 Q66H]
0.331 | chain 1 SQNQERLCAFKDPYQQDLGIGESRISHENGTILCSKGSTCYGLWEKSKGDINLVKQGCWSHIADPQECHYEECVVTTTPPSIQNGTYRFCCCSTDLCNVNFTENFPPPDTTPLSPPHSFNRDET [chain 1 G63A]
0.0423 | chain 1 SQNQERLCAFKDPYQQDLGIGESRISHENGTILCSKGSTCYGLWEKSKGDINLVKQGCWSHIGDPQECHYEECVVTTTPPPIQNGTYRFCCCSTDLCNVNFTENFPPPDTTPLSPPHSFNRDET [chain 1 S81P]

Variants of: B1
Experiment: SPR (Biacore); BMP10 immobilised on a CM5 Biacore chip; parent: 1.35e+05

kon [M⁻¹ s⁻¹] | Variant
3980 | chain 1 SQNQERLCAFKDPYQQDLGIGESRISHENGTILCSKGSTCYGLWEKSKGDINLVKQGCWSHIEDPQECHYEECVVTTTPPSIQNGTYRFCCCSTDLCNVNFTENFPPPDTTPLSPPHSFNRDET [chain 1 G63E]
148000 | chain 1 SQNQERLCAFKDPYQQDLGIGESRISHENGTILCSKGSTCYGLWEKSKGDINLVKQGCWSHIGDPQECHYEKCVVTTTPPSIQNGTYRFCCCSTDLCNVNFTENFPPPDTTPLSPPHSFNRDET [chain 1 E72K]
1830 | chain 1 SQNQERLCAFKDPYQQDLGIGESRISHENGTILCSKGSTCYGLWEKSKGDINLVKQGCWSHIWDPQECHYEECVVTTTPPSIQNGTYRFCCCSTDLCNVNFTENFPPPDTTPLSPPHSFNRDET [chain 1 G63W]
120000 | chain 1 SQNQERLCAFKDPYQQDLGIGESRISHENGTILCSKGSTCYGLWEKSKGDINLVKQGCWSHIGDPHECHYEECVVTTTPPSIQNGTYRFCCCSTDLCNVNFTENFPPPDTTPLSPPHSFNRDET [chain 1 Q66H]
104000 | chain 1 SQNQERLCAFKDPYQQDLGIGESRISHENGTILCSKGSTCYGLWEKSKGDINLVKQGCWSHIADPQECHYEECVVTTTPPSIQNGTYRFCCCSTDLCNVNFTENFPPPDTTPLSPPHSFNRDET [chain 1 G63A]
129000 | chain 1 SQNQERLCAFKDPYQQDLGIGESRISHENGTILCSKGSTCYGLWEKSKGDINLVKQGCWSHIGDPQECHYEECVVTTTPPPIQNGTYRFCCCSTDLCNVNFTENFPPPDTTPLSPPHSFNRDET [chain 1 S81P]

Variants of: B1
Experiment: SPR (Biacore); BMP10 immobilised on a CM5 Biacore chip; parent: 1.19e+03 nM

Kd [nM] | Variant
153000 | chain 1 SQNQERLCAFKDPYQQDLGIGESRISHENGTILCSKGSTCYGLWEKSKGDINLVKQGCWSHIEDPQECHYEECVVTTTPPSIQNGTYRFCCCSTDLCNVNFTENFPPPDTTPLSPPHSFNRDET [chain 1 G63E]
1070 | chain 1 SQNQERLCAFKDPYQQDLGIGESRISHENGTILCSKGSTCYGLWEKSKGDINLVKQGCWSHIGDPQECHYEKCVVTTTPPSIQNGTYRFCCCSTDLCNVNFTENFPPPDTTPLSPPHSFNRDET [chain 1 E72K]
237000 | chain 1 SQNQERLCAFKDPYQQDLGIGESRISHENGTILCSKGSTCYGLWEKSKGDINLVKQGCWSHIWDPQECHYEECVVTTTPPSIQNGTYRFCCCSTDLCNVNFTENFPPPDTTPLSPPHSFNRDET [chain 1 G63W]
1220 | chain 1 SQNQERLCAFKDPYQQDLGIGESRISHENGTILCSKGSTCYGLWEKSKGDINLVKQGCWSHIGDPHECHYEECVVTTTPPSIQNGTYRFCCCSTDLCNVNFTENFPPPDTTPLSPPHSFNRDET [chain 1 Q66H]
3190 | chain 1 SQNQERLCAFKDPYQQDLGIGESRISHENGTILCSKGSTCYGLWEKSKGDINLVKQGCWSHIADPQECHYEECVVTTTPPSIQNGTYRFCCCSTDLCNVNFTENFPPPDTTPLSPPHSFNRDET [chain 1 G63A]
328 | chain 1 SQNQERLCAFKDPYQQDLGIGESRISHENGTILCSKGSTCYGLWEKSKGDINLVKQGCWSHIGDPQECHYEECVVTTTPPPIQNGTYRFCCCSTDLCNVNFTENFPPPDTTPLSPPHSFNRDET [chain 1 S81P]
